Molecular target: GST-CTD substrate (human)

Substance	KmCTD from in vitro kinase assay (32P-GST-CTD product) against varying concentrations of GST-CTD substrate [µM]	KmCTD from in vitro kinase assay (32P-GST-CTD product) against varying concentrations of GST-CTD substrate, 10 μM ATP, 15 min [µM]
CDK12^715–1052/CycK^11–267 complex (from UniProt Q9NYV4 715-1052; O75909 11-267)	2	
full length CDK12/CycK1 complex (from UniProt Q9NYV4-1 1-1490; O75909 1-580)		0.3
